From paper PMC10406861

What was measured:
[1] = biological target: Histone H2A-H2B dimer (H2B T112C labeled with Cy5.5) (X. laevis) (UniProt P06897)
[2] = biological target: Histone H2A-H2B dimer (H2B T112C labeled with Cy5.5) (X. laevis) (UniProt P06897); remark: listed apart in the source

rate constant of H2A-H2B exchange between nucleosomes containing H3KS56ac (three-color smFRET), in the presence of Nap1 [1]: 1380 M⁻¹ s⁻¹
rate constant of H2A-H2B exchange between CpG methylated nucleosomes (three-color smFRET), in the presence of Nap1 [2]: 626 M⁻¹ s⁻¹
Substance: 6xHis-Yeast nucleosome assembly protein 1 (Nap1) (from UniProt P25293 1-417) (natural protein)
